# According to article PMC11082193, “Enzymatic synthesis of mono- and trifluorinated alanine enantiomers expands the scope of fluorine biocatalysis” (Communications Chemistry, 2024):
# B1: StDAPDH (Symbiobacterium thermophilum IAM 14863) (protein)
# chain: DKLRVAVVGYGNVGRYALEAVQAAPDMELVGVVRRKVLAATPPELTGVRVVTDISQLEGVQGALLCVPTRSVPEYAEAMLRRGIHTVDSYDIHGDLADLRRRLDPVAREHGAAAVISAGWDPGTDSIIRALLEFMAPKGITYTNFGPGMSMGHSVAVKAIPGVRDALSMTIPAGMGVHKRAVYVELEPGADFAEVERAIKTDPYFVRDETRVTQVESVSALMDVGHGVVMERKGVSGATHNQLFRFEMRINNPALTAQVMVAALRAAARQKPGCYTMIEIPVIDYLPGDREAWIRKLV
# notes: expressed in E. coli BL21(DE3), Ni-NTA purified
# What was measured:
# [1] = target: T1, NAD-PseFDH (Pseudomonas sp. 101, UniProt P33160); test: FDH activity assay with formate; format: biochemical
# T1 construct: N-terminal His6 tag followed by TEV site (His6 purified); source plasmid pZ-ASL; expressed in E. coli BL21(DE3)
# T1 sequence (P33160 2-401): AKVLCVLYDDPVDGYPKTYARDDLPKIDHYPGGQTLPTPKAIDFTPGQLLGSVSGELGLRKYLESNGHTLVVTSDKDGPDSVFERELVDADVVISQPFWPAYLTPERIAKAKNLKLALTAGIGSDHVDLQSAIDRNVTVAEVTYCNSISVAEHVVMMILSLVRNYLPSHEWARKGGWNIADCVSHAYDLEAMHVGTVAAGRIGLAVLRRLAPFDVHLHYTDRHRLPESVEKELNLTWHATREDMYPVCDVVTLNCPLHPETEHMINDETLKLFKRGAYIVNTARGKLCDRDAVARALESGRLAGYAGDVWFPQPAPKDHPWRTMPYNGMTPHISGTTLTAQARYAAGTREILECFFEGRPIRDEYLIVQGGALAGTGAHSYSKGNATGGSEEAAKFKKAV
# [2] = target: T2, SlALR (Streptomyces lavendulae, UniProt Q65YW7); test: HPLC of released pyruvate; format: biochemical; details: beta-elimination of fluoride; 10 mM substrate, 0.02 or 0.1 μM enzyme, 50 μM pyridoxal 5'-phosphate, pH 8.0, 30 °C, 18 h
# T2 construct: gene alr; expressed in E. coli BL21(DE3), Ni-NTA purified
# T2 sequence (Q65YW7 2-378): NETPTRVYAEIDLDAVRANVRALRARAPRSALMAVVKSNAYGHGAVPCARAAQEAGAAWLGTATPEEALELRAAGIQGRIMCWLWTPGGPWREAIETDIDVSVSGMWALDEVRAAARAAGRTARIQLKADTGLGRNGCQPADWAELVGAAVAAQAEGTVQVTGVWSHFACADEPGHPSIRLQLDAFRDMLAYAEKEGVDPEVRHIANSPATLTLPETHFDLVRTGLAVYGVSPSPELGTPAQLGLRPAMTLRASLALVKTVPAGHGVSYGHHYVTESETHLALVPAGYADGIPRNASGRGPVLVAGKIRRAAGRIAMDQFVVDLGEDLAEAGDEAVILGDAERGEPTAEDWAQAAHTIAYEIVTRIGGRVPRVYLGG
# [3] = system: CC(=O)C(=O)O; test: purified protein; format: biochemical, Vibrio proteolyticus; details: reductive amination, 0.5 mM NADH, 200 mM NH4Cl, 50 mM sodium phosphate pH 8.0, 30 °C
# [4] = system: O=C(O)C(=O)CF; test: purified protein; format: biochemical, Vibrio proteolyticus; details: reductive amination, 0.5 mM NADH, 200 mM NH4Cl, 50 mM sodium phosphate pH 8.0, 30 °C
# [5] = substrate: O=C(O)C(=O)CF; test: purified protein; format: biochemical, Symbiobacterium thermophilum; details: reductive amination, 0.5 mM NADPH, 200 mM NH4Cl, 50 mM sodium phosphate pH 8.0, 30 °C
# [6] = substrate: CC(=O)C(=O)O; test: purified protein; format: biochemical, Symbiobacterium thermophilum; details: reductive amination, 0.5 mM NADPH, 200 mM NH4Cl, 50 mM sodium phosphate pH 8.0, 30 °C
molecule,measurement,setting,value
NC(=O)c1ccc[n+]([C@@H]2O[C@H](COP(=O)(O)OP(=O)(O)OC[C@H]3O[C@@H](n4cnc5c(N)ncnc54)[C@H](O)[C@@H]3O)[C@@H](O)[C@H]2O)c1 [NAD^+],FDH activity assay with formate,[1]; formate as co-substrate,confirmed the high specificity for either cofactor of the purified NAD-^PseFDH and NADP-^PseFDH enzymes
"N[C@@H](CF)C(=O)O [(R)-FAla, (R)-3-fluoroalanine]",HPLC of released pyruvate,[2],(R)-FAla and (S)-FAla were transformed by ^SlALR into Pyr
VpALD (Vibrio proteolyticus),Km,[3],0.29 ± 0.04 mM
same,Vmax,[3],247 µmol/min/mg
same,kcat,[3],173 ± 8 s⁻¹
same,kcat/Km,[3],597000 M⁻¹ s⁻¹
same,Km,[4],0.18 ± 0.02 mM
same,Vmax,[4],11.9 µmol/min/mg
same,kcat,[4],8.3 ± 0.3 s⁻¹
same,kcat/Km,[4],46100 M⁻¹ s⁻¹
"N[C@H](CF)C(=O)O [(S)-FAla, (S)-3-fluoroalanine]",HPLC of released pyruvate,[2],(R)-FAla and (S)-FAla were transformed by ^SlALR into Pyr
O=CO [formate],FDH activity assay with formate,[1]; NAD+ as co-substrate,the functionality of both ^PseFDH enzymes was verified on formate
B1,Km,[5],14.0 ± 0.6 mM
same,Vmax,[5],0.161 µmol/min/mg
same,kcat,[5],0.093 ± 0.001 s⁻¹
same,kcat/Km,[5],6.6 M⁻¹ s⁻¹
same,Km,[6],6.7 ± 0.3 mM
same,Vmax,[6],1.81 µmol/min/mg
same,kcat,[6],1.05 ± 0.01 s⁻¹
same,kcat/Km,[6],160 M⁻¹ s⁻¹
